Experiment [1] deals with CytERM-EBFP2 (Aequorea victoria).
In experiment [2] the target is CytERM-moxBFP (Aequorea victoria).

As for CytERM-EBFP2, in experiment [1], the % cells with OSER structures (CytERM assay, n=138 cells) came out at 63.7%.

CytERM-mTagBFP yielded a % cells with OSER structures (CytERM assay, n=69 cells) in the experiment with CytERM-mTagBFP of 43.5%.

As for CytERM-moxBFP, in experiment [2], the % cells with OSER structures (CytERM assay, n=109 cells) worked out at 0.9%.

The values are drawn from PMC4499870.
